Experimental data: US8016811B2, “Method for transdermal delivery of permeant substances” (priority 2003, dated 2011)

Experiment: Serum insulin concentration profile in hairless rats after transdermal patch over micropores or subcutaneous dosing
Format: in vivo
Description: This example illustrates the ability of the microporation system to mimic the delivery of a subcutaneous infusion of insulin. Hairless rats were purchased and dosed with insulin in accordance with the terms set forth below. The insulin concentration within the serum of the rats was then monitored at given time intervals to provide a blood serum insulin concentration profile.
Three hairless rats were given a 1 U/kg dose of insulin by way of subcutaneous administration. The concentration of insulin in the rats' blood serum was monitored. The average insulin blood serum concentration for the three rats was determined.
Five hairless rats were purchased from Charles River. Jugular vein cannulation was performed the day before the experiment to allow the animals recovering from the surgery.
The experiment was conducted as follows. The rats were anesthetized immediately before the skin treatment, which consisted of cleaning the abdomen side of the rat skin with an alcohol swab. The abdomen was allowed to air dry.
After the abdomen dried, the microporation system was placed longitudinally, and the bottom corners marked, on the cleaned skin site. The cleaned skin site was then microporated using the microporation system. Following microporation, the microporation system was removed and a liquid reservoir patch was placed on the microporated area. The patch was then filled with a 50 IU/ml dose of insulin and a time-zero sample was immediately taken. The remaining samples were taken according to the preset schedule.
After the sample at the 4th hour was taken, the rats were anesthetized to retrieve the donor solution from the liquid reservoir patch. Blood sampling continued until the 8th hour.
Afterward, the test was conducted again, however the patch applied was 2 cm^2 in area. Lastly, the test was performed for a third time, with the patch having a size of 3 cm^2.
Three hairless rats were prepared and tested in accordance with the procedure set forth in Test 1 above. However, for this test, a second generation planar microporation system was used to create the micropores in the abdomen of each rat. In addition, the transdermal patch contained a 50 IU/ml dose of insulin when applied to the microporated area of the skin of each rat.
This test was designed to determine any differences in the types of transdermal patches used to deliver insulin through the micropores. Five hairless rats were prepared and tested in accordance with the procedure set forth in Test 1 above. Following microporation of each rat, an early prototype liquid reservoir patch was applied to two of the rats, while a second generation transdermal patch was used to deliver insulin in the remaining three rats. Each patch contained a 50 IU/ml dose of insulin when applied to the microporated area of the skin of each rat.
A number of rats were prepared in accordance with the procedure set forth in Test 1 above. For those rats that had delivery openings formed on their abdomen, the delivery openings were formed using an early prototype microporation system. Insulin was delivered to the rats using a second generation delivery patch containing the desired concentration of insulin.
The delivery patch was applied to the rats' abdomen without microporation. The rats in this control group were given a […] concentration dose of insulin.
For the other rats in this test, the delivery patch contained insulin in concentrations of 10 IU/ml (6 rats), 25 IU/ml (6 rats), […] or 100 IU/ml (6 rats). The insulin serum concentration was monitored in each of the rats at various intervals of time. The average concentration of the rats for that particular insulin concentration (and whether delivery openings were formed or not) was determined and an insulin serum concentration profile was developed.

Substance: insulin
- average insulin serum concentration, transdermal through micropores versus subcutaneous (50 IU/ml patch for 4 hours (5 rats) vs 1 U/kg subcutaneous (3 rats), FIG. 5): higher average concentration
- duration of higher average insulin serum concentration, transdermal versus subcutaneous (50 IU/ml patch for 4 hours vs 1 U/kg subcutaneous, FIG. 5): longer duration
- insulin serum concentration, planar array microporation system versus step and repeat microporation system (50 IU/ml patch for 4 hours, FIG. 7): slightly lower
- average insulin serum concentration, change with patch size 1 cm^2 to 2 cm^2 (50 IU/ml patch, 4 rats, FIG. 6): roughly doubled
- average insulin serum concentration, change with patch size 2 cm^2 to 3 cm^2 (50 IU/ml patch, 4 rats, FIG. 6): roughly doubled
- average insulin concentration, early prototype liquid reservoir patch versus second generation transdermal patch (50 IU/ml patch, FIG. 8): very similar
- average insulin serum concentration, 100 IU/ml dose in comparison to other doses (microporated, 100 IU/ml patch, 6 rats, FIG. 9): very high
- average insulin serum concentration, 50 IU/ml dose versus 25 IU/ml dose (microporated, FIG. 9): not much difference
- average insulin serum concentration, rats without delivery openings (patch on non-microporated abdomen, 3 rats, FIG. 9): very low
